US7732178B2, “Laccase enzymes and their uses” (AB Enzymes Oy, priority 2004, dated 2010)
“Also recorded” adds a separate entry of the source.

Assays:
[1] = Decolorization of dyes; parameters: key to Decolorization of Cibacron Brilliant Red 3B-P, Time 30 min / Decolorization of Cibacron Brilliant Red 3B-P, Time 60 min: −: no visually detectable change; +: visually detectable fading of the colour; ++: considerable fading of the colour; +++: complete/almost complete decolorization; conditions: for Decolorization of Cibacron Brilliant Red 3B-P, Time 30 min / Decolorization of Cibacron Brilliant Red 3B-P, Time 60 min: Table 24, dye 5 mg/50 ml, enzyme 100 nkat/50 ml, 50° C., pH 6
Procedure: (§1) The recombinant laccases CtLcc1, TaLcc2 and TaLcc4, derived from Trichoderma strains (Example 7) were tested for their ability to decolorize different dyes in the presence of the methyl syringate mediator (Example 7) or without it. The experiments were carried out in 100 ml shake flasks containing 50 ml of dye dissolved in citrate phosphate buffer pH 6. Dye concentration 5 mg/50 ml was used. Enzyme was dosed 100 nkat per 50 ml and the mediator 5 mg per 50 ml. Control samples contained only dye solution. The shake flasks were incubated at 50° C. for 30, 60 and 120 minutes. Samples of 3.5 ml were taken in test tubes for visual evaluation.

[2] = Stain removal, tea soiling; parameters: key to Tea L* / Tea a* / Tea b*: CIE L*a*b* color coordinates from reflectance; conditions: for Tea L* / Tea a* / Tea b*: 60 min, pH 6
Procedure: Laccases CtLcc1, TaLcc2, TaLcc4 and Denilite II Base (Example 7) were tested for their ability to remove stains. The following artificially soiled test cloths were used: grass soiling (Art.164, EMPA Testmaterialen, Germany), tea soiling (Art. 167, EMPA Testmaterialen, Germany). The fabric was cut in 5.8×5.8 cm swatches. Laccase treatments were performed in LP-2 Launder Ometer as follows. About 5 g of soiled fabrics were loaded into 1.2 liter containers containing 150 ml Mc Ilvaine's citrate phosphate buffer pH 6 and the containers were temperated. Enzyme with or without the mediator (methyl syringate, DeniLite II Assist, Novozymes) was added as laccase activity units (Example 7). Enzyme was dosed 200 nkat/g and the mediator 10 mg/g on the weight of fabric, except at 40° C. dosages of 20 nkat/g and 2 mg/g were also used. The Launder Ometer was run at 40, 50 or 60° C. and pH 6 for 60 min. After that the swatches were carefully rinsed under running water and in shake flasks containing warm water and dried in the air.
The stain removal effect was evaluated by measuring the colour as reflectance values using L*a*b* color space coordinates (Example 7). The colour of the swatches was measured before and after the laccase treatment.

[3] = Decolorization of dyes; parameters: key to Decolorization of Remazol Brilliant blue, Time 30 min / Decolorization of Remazol Brilliant blue, Time 60 min: −: no visually detectable change; +: visually detectable fading of the colour; ++: considerable fading of the colour; +++: complete/almost complete decolorization; conditions: for Decolorization of Remazol Brilliant blue, Time 30 min / Decolorization of Remazol Brilliant blue, Time 60 min: Table 24, dye 5 mg/50 ml, enzyme 100 nkat/50 ml, 50° C., pH 6
Procedure: as §1

[4] = Decolorization of dyes; parameters: key to Decolorization of Indigocarmine, Time 30 min / Decolorization of Indigocarmine, Time 60 min: −: no visually detectable change; +: visually detectable fading of the colour; ++: considerable fading of the colour; +++: complete/almost complete decolorization; conditions: for Decolorization of Indigocarmine, Time 30 min / Decolorization of Indigocarmine, Time 60 min: Table 24, dye 5 mg/50 ml, enzyme 100 nkat/50 ml, 50° C., pH 6
Procedure: as §1

[5] = Denim bleaching at different temperatures; parameters: key to After laccase treatment L* / After laccase treatment b* / Increase of L*: CIE L*a*b* colour coordinates (illuminant D65), reflectance; conditions: for After laccase treatment L* / After laccase treatment b* / Increase of L*: face side of denim, 30 min, pH 6, enzyme 200 nkat/g, mediator 10 mg/g
Procedure: Lee Cooper jeans (MASI Company Oy, Finland) that were desized and treated with neutral ECOSTONE® cellulase were used as test material. Laccase treatments were performed in LP-2 Launder Ometer as follows. About 10 g of denim swatches (15×14 cm) were loaded into 1.2 liter containers containing 200 ml Mc Ilvaine's citrate phosphate buffer pH 5, 6 or 7 and the containers were temperated. Enzyme with or without the mediator (methyl syringate, DeniLite II Assist, Novozymes) was added as laccase activity units. Enzyme was dosed 200 nkat/g and the mediator 10 mg/g on the weight of fabric. […] The Launder Ometer was run at 50° C. for 30 min and after that the temperature in Launder was raised to 80° C. for 10 min. The swatches were carefully rinsed with warm water, dried half-dry in a tumbler and after that air dried.
The bleaching effect was evaluated by measuring the colour as reflectance values with the Minolta Chromameter CM 1000 (Minolta Co.) using L*a*b* color space coordinates (illuminant D65). The colour from both sides of the swatches was measured before and after the laccase treatment. Each measurement was the average of several measurements.
The test system and denim were as in Example 7, except that the conditions during the laccase and mediator treatment in Launder were 30 min, pH 6 and temperature 30-70° C. (DeniLite II Base also at 80° C.) and the enzyme was inactivated by alkaline treatment instead of raising the temperature in Launder as follows. After removing swatches from the containers they were soaked in warm water containing NaOH (pH 11.5) for 10 min and rinsed carefully with warm water. The swatches were dried half-dry in a tumbler and after that air dried. The bleaching effect was evaluated by measuring the colour as reflectance values as in Example 7.

[6] = Specific activity towards guaiacol; type: biochemical; conditions: 25 mM MES buffer, pH 5.5
Procedure: Specific activities of the purified T. arenaria and C. thermophilum laccases were determined towards different laccase substrates.

[7] = in the presence of the mediator
[8] = 40° C., enzyme 20 nkat/g + mediator 2 mg/g (Mediator only: 0 nkat/g)
[9] = 40° C., enzyme 200 nkat/g + mediator 10 mg/g (Mediator only: 0 nkat/g), RF5571
[10] = 40° C., enzyme 200 nkat/g + mediator 10 mg/g (Mediator only: 0 nkat/g), RF5573
[11] = 40° C., enzyme 200 nkat/g, mediator 0 mg/g
[12] = 50° C., enzyme 200 nkat/g + mediator 10 mg/g (Mediator only: 0 nkat/g)

B1: TaLcc2: Thielavia arenaria ALKO 4197 laccase, SEQ ID NO: 41, produced in Trichoderma reesei (protein)
chain: MLTETLKSRNMLQSILALLATALGSSAFAIPELPEVSLQPRQACENTATSRQCWGDLSIDTNYYEVLPSTGRPPQEYWLSVVEGPCAPDGYNRTCMTFNGTVPGPTLFADWGDELVIHVTNNMVNNGTAIHWHGIRMLNNTLNDGVPGVTQCAIAPGESMTYRFNVTQYGSTWYHSHFSLQYAEGLFGGMILRGPSTANWDEDLGVLFLQDWSHVEAFTRWHEAKAGFPPSLDGGLINGTNTFDCSTLSPTDPKCTGNGKKFETVFEPGKKYLIRLINVAIDGVFQFSIDGHSLTVIATDLVPIVPYTTDSVQITIGQRYDIIVEANATPGNYWMRADWVTACVTNDHPEHMTGIVRYDASSIDPPTSESNVTKTSSCLGEPNEKTIPHLSLDVTNIGGTNVEELSFDTTSGDYFQWTLNTSSLVLDWGNPTMARIFNGDAIFPTEYNVVAVNKTGTGPEWTVLVIQDQSNLPIAHPIHLHGHDFWVLAAEEGVFNGNISSFNTRNPARRDVATLPGRGYLAIAFQIDNPGTWLTHCHIAWHASQGLSLEFVESQSEIVTDEVSRGVFNDVCASWRAHDPLWEQEDSGI
modifications: Thielavia arenaria ALKO4197; (1)..(589) Deduced amino acid sequence of Thielavia arenaria ALKO4197 TaLacc2
With B1 the “Decolorization of Cibacron Brilliant Red 3B-P, Time 30 min” value ([1]; mediator 0 mg/50 ml) was “−”, the “Decolorization of Cibacron Brilliant Red 3B-P, Time 60 min” value ([1]; mediator 0 mg/50 ml) was “−” and the “Decolorization of Cibacron Brilliant Red 3B-P, Time 30 min” value ([1]; mediator 5 mg/50 ml) was “+”. The “Decolorization of Cibacron Brilliant Red 3B-P, Time 60 min” value ([1]; mediator 5 mg/50 ml) was “+”, the “decolorization of Cibacron Brilliant Red 3B-P” value [1, 7] was “partly decolorized” and the “Tea L*” value [2, 8] was 75.61. The “Tea a*” value [2, 8] was 5.24, the “Tea b*” value [2, 8] was 23.66 and the “Tea L*” value [2, 9] was 77.28. The “Tea a*” value [2, 9] was 4.36, the “Tea b*” value [2, 9] was 24.32 and the “Tea L*” value [2, 10] was 77.04. The “Tea a*” value [2, 10] was 4.41, the “Tea b*” value [2, 10] was 24.36 and the “Tea L*” value [2, 11] was 76.09. For the same molecule, the “Tea a*” value [2, 11] was 5.37, the “Tea b*” value [2, 11] was 22.59 and the “Tea L*” value [2, 12] was 77.73. The “Tea a*” value [2, 12] was 3.99, the “Tea b*” value [2, 12] was 22.89 and the “removal of tea soiling with the mediator” value ([2]; CtLcc1 at 60° C., TaLcc2 at 50° C.) was “effective”. The “Decolorization of Remazol Brilliant blue, Time 30 min” value ([3]; mediator 0 mg/50 ml) was “−”, the “Decolorization of Remazol Brilliant blue, Time 60 min” value ([3]; mediator 0 mg/50 ml) was “−” and the “Decolorization of Remazol Brilliant blue, Time 30 min” value ([3]; mediator 5 mg/50 ml) was “++”. For the same molecule, the “Decolorization of Remazol Brilliant blue, Time 60 min” value ([3]; mediator 5 mg/50 ml) was “+++”, the “decolorization of Remazol Brilliant Blue” value [3, 7] was “very effectively; also recorded: to great extend or completely” and the “Decolorization of Indigocarmine, Time 30 min” value ([4]; mediator 0 mg/50 ml) was “−”. The “Decolorization of Indigocarmine, Time 60 min” value ([4]; mediator 0 mg/50 ml) was “−”, the “Decolorization of Indigocarmine, Time 30 min” value ([4]; mediator 5 mg/50 ml) was “+++” and the “Decolorization of Indigocarmine, Time 60 min” value ([4]; mediator 5 mg/50 ml) was “+++”. The “decolorization of Indigocarmine” value [4, 7] was “very effectively; also recorded: to great extend or completely”, the “decolorization of denim (increase of lightness) compared to Denilite II Base” value ([5]; 40-50 ° C. and pH 6) was “more efficient” and the “After laccase treatment L*” value ([5]; 30° C.) was 33.99. For the same molecule, the “After laccase treatment b*” value ([5]; 30° C.) was −19.33, the “Increase of L*” value ([5]; 30° C.) was 4.45 and the “After laccase treatment L*” value ([5]; 40° C.) was 37.08. For the same molecule, the “After laccase treatment b*” value ([5]; 40° C.) was −18.53, the “Increase of L*” value ([5]; 40° C.) was 8.15 and the “After laccase treatment L*” value ([5]; 50° C., alkaline inactivation) was 37.47. For the same molecule, the “After laccase treatment b*” value ([5]; 50° C., alkaline inactivation) was −18.48, the “Increase of L*” value ([5]; 50° C., alkaline inactivation) was 9.00 and the “After laccase treatment L*” value ([5]; 60° C.) was 36.07. The “After laccase treatment b*” value ([5]; 60° C.) was −18.26, the “Increase of L*” value ([5]; 60° C.) was 6.82 and the “After laccase treatment L*” value ([5]; 70° C.) was 32.84. For the same molecule, the “After laccase treatment b*” value ([5]; 70° C.) was −17.94, the “Increase of L*” value ([5]; 70° C.) was 4.54 and the “Specific activity on guaiacol” value [6] was 40 nkat/mg.
